Measured values reported in a protein production outcome set (Wang et al. 2014).

Assay: label from the status in PepcDB records
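Note: failed if final PepcDB status was selected cloned or expressed and not failed if soluble or beyond.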

Row | Sequence | protein production
1 | MAISKALIASLLISLLVLQLVQADVENSQKKNGYAKKIGFRGGRGCVTERAGLAATGATVCLRVRTETTTSASATLASPPTVDAASAHKKKQSS | failed
2 | MAISQMKKLAMVFEKDYLDLVLKTLQQSQLVEVRDMKQLKHWQDAFNKGNVKLPQIVQYDLTHQKPLLDDEALQYLLQSQQELENGLASLSAFLPPIGKLTALRQKTPSLSFKQFEERHRQQAAQTALKMMSQKIERLEQLQSKIDQLTEYCQELEKWRSLTVLPQDLAQFHFLSARVGTIPSTANNHFYHQLKQHKGLFIEEVYHTEFEYGLVLFWQAQDTIHLQKYQFKPLLYKEQLLPSEQLRINKELLTNWLAEKDSLLKELRQSQKILAQLQVEIDYVLSQYQRQQTKKQLLGTRHLIALEGWIEADSVNQLKGLMTKTLGDMFYLDSYDVTPDDWEDVPIKLRNHRYIAPFELVTEMYALPKYQEKDPTPFLAPLYLTFFGMMVADLGYGLLLYAVTLAALVFFNLQKTSKRLVTFFNILAISVAIWGLIYGSFFGFDLPVALLSTKTDVITILVVSLLFGFVTLIFGLLLGAWQQVRMKAYATAYTSSLAWTFILLGLLLFILGKNVSGLAYLSVIGKWLALGNAFGILVVSLLKSKSLLGLGSGLYNLYGISSYLSDLVSFTRLMALGLSGASIGAAFNMIVGIFPPVTRFTVGIFIFILLHAINIFLSMLSGYVHGARLIFVEFFGKFYEGGGKAFNPLKLADNYVNVNEETDLEDN | failed
3 | MAIVKMNKFTLLAFESEKEKLLKKIQSSSEVEFINLQDEEKVEGNEVFESLSKDDLDAETTLIEENVSKTRSALDFLKEFVAEVGGLKALKAGKESLTLDELEVKVENSNWEVVYSEVKKMERELATLENEKTKLLGEIEILEPWQSFDAPLGELNNFEKVVAFLGVISSQNLENMKNEIESEFKESYIEVISNTDQDSYVFVMTMKERAEEMDEVLKNFGFSAFQTKYKEKASVLVEEFKLKIQEIEAQKSDLKGVLSNYREEKRTLELAYEYYSNILLRKEASENFLKTDKVVVIQGWVPKNDNSSLEGIIQSSVGDMYYLEFEEVKEEEVAEVPVKLHNKGPAAAFDSITEMYSLPRYDEIDPTPLLTPFYLVFFGMMVADLGYGLVLFVGSLLAMKLLNLDEAQEKFAKFFMYLSIATTIAGAVFGTAFGFELKSIGLINPSKDTNLLLILSVGFGVIQIFFGLFIKAYMLIRDKQYLYALFDVGSWIMLLIGLPMIFFDGPISLVGKVLSIVGSILIILTQGRDEETKGAQIGQGLYALYGITGYVGDLVSYTRLMALGIAGGSIAAALNLIIGMFPGIAVIIVGPLFFIAAHTFNMLLSLLGAYVHTARLQYVEYFSKFYEGGGKAFTPFRTINKFITIKRNK | failed
4 | MAKDTDIRSRMNRIEEIIDQLDADEVSLDEGSELYEEGQELLTEIRERLHEGQGEVIEIK | not failed
5 | MAKFIMVVGTSSNSGKTVLVSGICRMLSNKGYKVAPFKSQNMSLNSRVSVEDGEIAVAQYTQAMAARAEPSVHFNPILLKPKGNFVSQVIVHGNPYEDKDYNEYRSKKDDFLVKIKESIDYLDKNYDYVVIEGAGSCCEINLLNDDIANLKVAEIAGADAILVSDIDRGGVFASIYGTVQLLPENWKKLLKGFVINKFRGNIDVLKDGFEKIEELTNIPVIGTIPYDETLVLPEEDSQALDGKRLEHHHHHH | failed
6 | MAKGVRVGLKNIHFAKILTEDENGVTYDTPVKIGNAIEASITPNTNSETLYADDGPSEVESSLGETEVEIGIDQLSTTAQALLLGHTILSDGVLEKKETDIAPYGALLFESATTGGKSKLYALYKGRFQPQEESFATKGLEHHHHHH | not failed
7 | MAKGYWIAQVDVRDSERYKDYVSTAKPAFERFGANFLARGGSVTELEGTARARNVVIEFPSVQHAIDCYNSPEYQAAAKIRQEVADAEMMIVEGI | not failed
8 | MAKIITPLSANQVKNAKPGDKLYKLSDGGGLALWVYPTGRRSWKLSFMQDGRQQTISLGRYPDFSLAEAREWREEVRRKRAHGENVVNKKVRADFAFEKVARDWFVRWSKGRSEKYAGQVMRNFERWVFPAIGNLDIRQVRTADVVGCLRVMEARGIVDTLRKTKNSLKMVFAFAVGSGMMEINPVAQIGSGVFERVKTKNMTALSPSELPRLIDFLEQRNEFAVYAGRVHIHPVTRFCIYWLLLTMTRIREAALMEWSELDGEVWRIPAERKKERRGHDVPLSRAMRWVLDQARGLNVNGRFVFESVNFQGHINKESPHVAMRRSGLDTTAHGLRSLARTYLREVLKVYNDVAEKLLAHSLGTRTQTAYNRSELWEERKDAPERWGNDVLRLADNGK | failed
9 | MAKIKFFALGGQDERGKNCYVLEIDNDVFIFNVGSLTPTTAVLGVKKIIPDFSWIQENQARVKGIFIGNAITENLGSLEFLFHTVGFFPIYTSSIGASIIKSKINENKLNIARDKLEIHELKPLETIEISNHSITPFKVSSSLPSSFGFALNTDNGYIVFIDDFIVLNDKNIAFENQLNQIIPKLSDNTLLLITGVGLVGRNSGFTTPKHKSLEQLNRIITPAKGRIFVACYDSNAYSVMTLAQIARMQNRPFIIYSQSFVHLFNTIVRQKLFNNTHLNTISIEEINNSTNSIVVLTSPPDKLYAKLFKIGMNEDERIRYRKSDTFIFMTPKVAGYEEIEAQILDDIARNEVSYYNLGREILSIQASDEDMKFLVSSLKPKYIIPTGGLYRDFINFTMVLKQAGAEQNQILILFNGEVLTIENKKLDSKKNELKLNPKCVDSAGLQEIGASIMFERDQMSESGVVIIIIYFDQKKSEFLNEITYSFLGVSLDVPEKDKLKTKMEELIKKQINDIKDFTTIKKRIGKEISKELKVSIKRAVMNLFTKMTSKAPLILSTIISI | failed
10 | MAKKNKPTECPAGEKWAVPYADFLSLLLALFIALYAISAVNKSKVEALKTEFIKIFNYAPKPEAMQPVVVIPPDSGKEEEQMASESSKPASQNTETKATIARKGEGSVLEQIDQGSILKLPSNLLFENATSDAINQDMMLYIERIAKIIQKLPKRVHINVRGFTDDTPLVKTRFKSHYELAANRAYRVMKVLIQYGVNPNQLSFSSYGSTNPIAPNDSLENRMKNNRVEIFFSTDANDLSKIHSILDNEFNPHKQQE | failed
11 | MAKKQLSLTRLSFPIFWDLLSKYLTVIINTAMVSHYSNFLVGAMGAGNQILDLFITIFSFLSVGCSVLIAQAIGAKDHVLARKVIHQSLFLNALLGFVCGVLILWHGEYLLYLLKIPQELLKDSEIYLHMLAICLFFDAIGIVLAAIVRVYNMAYWVMFIGFLMDIVVICGNYYVLHYTKSELFGIGLSNIFARIVAIVALFAILFYKLKIHLKIKEMIKLEKEVLKKVLNIGGFSAGENLLWIVQYTIAFAFVASLGEASLSVQTIYFQISMLIMLIGQATSIANEIIVGKLIGARYENIAYKHAWRALYFSVIASALVALLNYLCQDFTMQILGLKEELKNLMIPLFALSIFLEISRTFNIVMVNSLRASGDAKFPFFSGLVFMMGVSLPVGYVLCFHFNLGILGVWIGFCADEFLRGMVNSYRWKSKKWQGKALV | failed
12 | MAKKSTRTTPEDSQASTTDSAATSTASEATQAATSATDDQAEQTTAVDPTQQITDLKAQLDAKDDQLLRAQAEIVNMQNRNKKEQAALLKYDGQALAKDVLPVLDNLERALATPADDEAAQQLKKGVEMVYGHLQDALKKHGVTEVAAAGEKFDPNIHQAVQTVPVDDDHPADTVVQVLQRGYLLKDRTLRPAMVVVAQ | failed
13 | MAKKVVGEIKLQIPAGKANPSPPVGPALGQRGVNIMEFCKAFNERTKDMGSFNIPVIITVYQDKSFTFITKKPPVTDLIKKASGVEKGSDNPLKNKIAKLTHKQVEEIAQLKMEDLNTSTMEAAKKIVMGSARSMGVEVVD | failed
14 | MAKLRVGIVFGGKSAEHEVSLQSAKNIVDAIDKTRFDVVLLGIDKAGQWHVNDAENYLQNADDPAHIALRPSAISLAQVPGKHQHQLINAQNGQPLPTVDVIFPIVHGTLGEDGSLQGMLRVANLPFVGSDVLSSAACMDKDVAKRLLRDAGLNIAPFITLTRTNRHAFSFAEVESRLGLPLFVKPANQGSSVGVSKVANEAQYQQAVALAFEFDHKVVVEQGIKGREIECAVLGNDNPQASTCGEIVLNSEFYAYDTKYIDDNGAQVVVPAQIPSEVNDKIRAIAIQAYQTLGCAGMARVDVFLTADNEVVINEINTLPGFTNISMYPKLWQASGLGYTDLISRLIELALERHTANNALKTTM | not failed
15 | MAKLTESMTNVLEGDSMDQDVESPVAIHQPKLPKQARDDLPRHISRDRTKRKIQRYVRKDGKCNVHHGNVRETYRYLTDIFTTLVDLKWRFNLLIFVMVYTVTWLFFGMIWWLIAYIRGDMDHIEDPSWTPCVTNLNGFVSAFLFSIETETTIGYGYRVITDKCPEGIILLLIQSVLGSIVNAFMVGCMFVKISQPKKRAETLVFSTHAVISMRDGKLCLMFRVGDLRNSHIVEASIRAKLIKSKQTSEGEFIPLNQTDINVGYYTGDDRLFLVSPLIISHEINQQSPFWEISKAQLPKEELEIVVILEGMVEATGMTCQARSSYITSEILWGYRFTPVLTLEDGFYEVDYNSFHETYETSTPSLSAKELAELASRAELPLSWSVSSKLNQHAELETEEEEKNLEEQTERNGDVANLENESKV | failed
16 | MAKNTFTPELLEKHFTKNEWKKGARIFQANGVKTCALDGEVIRGVVFSERSRESSYLTRLVFDGKFGDIASYCDCYVGRDCKHGSALAQCYIHEHFDRNSIATSETIIDKWLNRFQAQPTRYQPNTQQKSLLYFLKPNPYNEDDFLTLGIKSARPKNSGGWNSSIGSEYSASSLINSAYANDEDVAVLTELMRTNQYGDTIKYFDLFERIIKTNRSFWHTTYDLSEPVTLSEPLEAEWQWLALGNSLHTLKLVLMQPSESIRIIKAQPLCFYDEEKNCFGKINTNTQCDFEAGLLNSPIFEEDKLPWIMSKLSMSLGDAVKRLPKPKTKYSQELTQPDVYLHFTTPVASNRQTGYVQVNFSYQGNLVNPHDENVTITPSNVTKLSIDSDAQSDADSNIESGAYSNIEDEVERENVSPREIKIYRDLAFEQTVIDKLTTLKFNPQPKPKRYTYTSQDDLNKSKTPEFAMLMQGSVLWQRFLHQELSPLEDLGWHITFADDFYYKALSTDSVFDAEVMETDDHDFFSLGLNLTIDGKKMPAFPILLSAIEQLPRSALLDREKEDLISPDSPIYVDLDNGGFVALRYQSVQPILKQFIELFMPNALSHDGTIELSRFQGHQTLSMLDDQGMIAKGTSKLRALADKLKDFQQVTTIPVPEGLNATLRTYQHQGLNWLQFLREYQLNGILADDMGLGKTIQTLAHLLIEKQQGRLTKPILIVAPTSVIFNWANEIDKFTPQLSYQVLHGNKRHEQFGCLEGVENGENQVDIIITSYALITKDLAHYTDRKFYYLVLDEAHYIKNTKTKLYQAFLTLKAQHKLCLTGTPMENHLGEFWAQFNFLLPGFLGGQRQFTKLFRTPIEKHGELERKQLLNQRIKPFILRRTKDKIATELPPKTEIIQTLRIEGKQAELYESVRLAMDSRLKDIIADKGLKRSQIEVLDALLKLRQVCNHPKLLKLEGAKKVNQSAKLDYLMETLPEQIDEGRKILIFSQFTSMLSLIEDELIDAGIGYVKLTGSTTKRQEVVDKFQRGEVPVFLISLRAGGVGLNLTAADTVIHFDPWWNPAVENQATDRAYRIGQNKPVFVYKLIIENSIEEKIQKIQQNKAELAKALLSEEVSDNKLSLTDDILDSLLTPLS | failed
17 | MAKSEEIIRERYKVMAPRIIKALNQRNFEAYFCETSEKAVECALSLIPQGASVAWGGSMTLEEIGLIQRLKEGNYQVIDRDTAKSQEERFSLMRQALLSDVYLASVNAMSEDGIMVNIDGRGNRISAIAFGPKTVILVVGMNKICRDLESARKRAHTYAAPNNALRLGLELPCTKTGCCFDCNKNNPSSICAQIVEMHSSIVPGRIKVILVGENLGL | failed
